B1: DVD852 (bispecific antibody)
VH: EVQLVESGGGLVQPGGSLRLSCAASGFTINASWIHWVRQAPGKGLEWVGAIYPYSGYTNYADSVKGRFTISADTSKNTAYLQMNSLRAEDTAVYYCARWGHSTSPWAMDYWGQGTLVTVSSASTKGPQVQLQESGPGLVKPSQTLSLTCTVSGYSISSDFAWNWIRQPPGKGLEWMGYISYSGNTRYQPSLKSRITISRDTSKNQFFLKLNSVTAADTATYYCVTAGRGFPYWGQGTLVTVSS
VL: DIQMTQSPSSLSASVGDRVTITCRASQVIRRSLAWYQQKPGKAPKLLIYAASNLASGVPSRFSGSGSGTDFTLTISSLQPEDFATYYCQQSNTSPLTFGQGTKVEIKRTVAAPSVFIFPPDIQMTQSPSSMSVSVGDRVTITCHSSQDINSNIGWLQQKPGKSFKGLIYHGTNLDDGVPSRFSGSGSGTDYTLTISSLQPEDFATYYCVQYAQFPWTFGGGTKLEIKR
notes: DVD-Ig; HC S, LC L; variable parts only
B2: DVD850 (bispecific antibody)
VH: EVQLVESGGGLVQPGGSLRLSCAASGFTISDYWIHWVRQAPGKGLEWVAGITPAGGYTYYADSVKGRFTISADTSKNTAYLQMNSLRAEDTAVYYCARFVFFLPYAMDYWGQGTLVTVSSASTKGPQVQLQESGPGLVKPSQTLSLTCTVSGYSISSDFAWNWIRQPPGKGLEWMGYISYSGNTRYQPSLKSRITISRDTSKNQFFLKLNSVTAADTATYYCVTAGRGFPYWGQGTLVTVSS
VL: DIQMTQSPSSLSASVGDRVTITCRASQDVSTAVAWYQQKPGKAPKLLIYSASFLYSGVPSRFSGSGSGTDFTLTISSLQPEDFATYYCQQSYTTPPTFGQGTKVEIKRTVAAPSVFIFPPDIQMTQSPSSMSVSVGDRVTITCHSSQDINSNIGWLQQKPGKSFKGLIYHGTNLDDGVPSRFSGSGSGTDYTLTISSLQPEDFATYYCVQYAQFPWTFGGGTKLEIKR
notes: as for B1
B3: DVD820 (bispecific antibody)
VH: EVQLVESGGGLVQPGGSLRLSCAASGFTISDYWIHWVRQAPGKGLEWVAGITPAGGYTYYADSVKGRFTISADTSKNTAYLQMNSLRAEDTAVYYCARFVFFLPYAMDYWGQGTLVTVSSASTKGPSVFPLAPQVQLQESGPGLVKPSQTLSLTCTVSGYSISSDFAWNWIRQPPGKGLEWMGYISYSGNTRYQPSLKSRITISRDTSKNQFFLKLNSVTAADTATYYCVTAGRGFPYWGQGTLVTVSS
VL: DIQMTQSPSSLSASVGDRVTITCRASQDVSTAVAWYQQKPGKAPKLLIYSASFLYSGVPSRFSGSGSGTDFTLTISSLQPEDFATYYCQQSYTTPPTFGQGTKVEIKRTVAAPDIQMTQSPSSMSVSVGDRVTITCHSSQDINSNIGWLQQKPGKSFKGLIYHGTNLDDGVPSRFSGSGSGTDYTLTISSLQPEDFATYYCVQYAQFPWTFGGGTKLEIKR
notes: DVD-Ig; HC L, LC S; variable parts only
B4: DVD758 (bispecific antibody)
VH: B2 VH
VL: B3 VL
notes: DVD-Ig; HC S, LC S; variable parts only
B5: DVD810 (bispecific antibody)
VH: EVQLVESGGGLVQPGGSLRLSCAASGYTFTNYGMNWVRQAPGKGLEWVGWINTYTGEPTYAADFKRRFTFSLDTSKSTAYLQMNSLRAEDTAVYYCAKYPHYYGSSHWYFDVWGQGTLVTVSSASTKGPSVFPLAPQVQLQESGPGLVKPSQTLSLTCTVSGYSISSDFAWNWIRQPPGKGLEWMGYISYSGNTRYQPSLKSRITISRDTSKNQFFLKLNSVTAADTATYYCVTAGRGFPYWGQGTLVTVSS
VL: DIQMTQSPSSLSASVGDRVTITCSASQDISNYLNWYQQKPGKAPKVLIYFTSSLHSGVPSRFSGSGSGTDFTLTISSLQPEDFATYYCQQYSTVPWTFGQGTKVEIKRTVAAPDIQMTQSPSSMSVSVGDRVTITCHSSQDINSNIGWLQQKPGKSFKGLIYHGTNLDDGVPSRFSGSGSGTDYTLTISSLQPEDFATYYCVQYAQFPWTFGGGTKLEIKR
notes: as for B3
B6: DVD338 (bispecific antibody)
VH: EVQLVESGGGLVQPGGSLRLSCAASGYTFTNYGMNWVRQAPGKGLEWVGWINTYTGEPTYAADFKRRFTFSLDTSKSTAYLQMNSLRAEDTAVYYCAKYPHYYGSSHWYFDVWGQGTLVTVSSASTKGPQVQLQESGPGLVKPSQTLSLTCTVSGYSISSDFAWNWIRQPPGKGLEWMGYISYSGNTRYQPSLKSRITISRDTSKNQFFLKLNSVTAADTATYYCVTAGRGFPYWGQGTLVTVSS
VL: B5 VL
notes: as for B4
B7: DVD840 (bispecific antibody)
VH: B6 VH
VL: DIQMTQSPSSLSASVGDRVTITCSASQDISNYLNWYQQKPGKAPKVLIYFTSSLHSGVPSRFSGSGSGTDFTLTISSLQPEDFATYYCQQYSTVPWTFGQGTKVEIKRTVAAPSVFIFPPDIQMTQSPSSMSVSVGDRVTITCHSSQDINSNIGWLQQKPGKSFKGLIYHGTNLDDGVPSRFSGSGSGTDYTLTISSLQPEDFATYYCVQYAQFPWTFGGGTKLEIKR
notes: as for B1
B8: DVD822 (bispecific antibody)
VH: EVQLVESGGGLVQPGGSLRLSCAASGFTINASWIHWVRQAPGKGLEWVGAIYPYSGYTNYADSVKGRFTISADTSKNTAYLQMNSLRAEDTAVYYCARWGHSTSPWAMDYWGQGTLVTVSSASTKGPSVFPLAPQVQLQESGPGLVKPSQTLSLTCTVSGYSISSDFAWNWIRQPPGKGLEWMGYISYSGNTRYQPSLKSRITISRDTSKNQFFLKLNSVTAADTATYYCVTAGRGFPYWGQGTLVTVSS
VL: DIQMTQSPSSLSASVGDRVTITCRASQVIRRSLAWYQQKPGKAPKLLIYAASNLASGVPSRFSGSGSGTDFTLTISSLQPEDFATYYCQQSNTSPLTFGQGTKVEIKRTVAAPDIQMTQSPSSMSVSVGDRVTITCHSSQDINSNIGWLQQKPGKSFKGLIYHGTNLDDGVPSRFSGSGSGTDYTLTISSLQPEDFATYYCVQYAQFPWTFGGGTKLEIKR
notes: as for B3

These binders were tested against T1, EGFR (UniProt P00533 25-645, limits assumed, biotinylated) (assay: direct bind ELISA, C-term VD;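 note: ELISA with antibody or DVD-Ig preparations applied to target antigen-coated plates for 1 h at room temperature, TMB colour development, absorbance read at 450 nm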).
T1 construct: ELISA antigen; construct not described
In the case of B1, the EC50 is reported as 68.1 nM.
B2 gave an EC50 of 71.8 nM.
In the case of B3, the EC50 is reported as 107 nM.
With B4 the EC50 was 562 nM.
For B5, the EC50 was 228 nM.
Work on B6 yielded an EC50 of 206 nM.
With B7 the EC50 was 69.8 nM.
Binder B8 has an EC50 of 90 nM.

The binders below were run against T2, VEGF (UniProt P15692-4 27-191, limits assumed, biotinylated) (assay: direct bind ELISA, N-term VD;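 note: antibody or DVD-Ig preparations bound to immobilized target antigen on ELISA plates, 1 h at room temperature, TMB detection read as absorbance at 450 nm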).
T2 construct: ELISA antigen
B1 was tested, and the EC50 was 0.78 nM.
For B2, the EC50 was 10.2 nM.
B3 was tested, and the EC50 was 4.08 nM.
Work on B4 yielded an EC50 of 5.37 nM.
In the case of B5, the EC50 is reported as 0.33 nM.
B6 showed an EC50 of 0.24 nM.
Work on B7 yielded an EC50 of 0.18 nM.
B8 was tested, and the EC50 was 0.72 nM.
